From US20120156198A1 (Hoffmann-La Roche, published 2012)

How the values were obtained:
[1] = biological target: human IL-18Rα (IL-18R1) on human cells (KG-1 cells, PBMC, TH1-cultured T cells, whole blood) (human) (UniProt Q13478); assay: cell-based or functional assay
[2] = biological target: recombinant human IL-18Rα Fc chimera (R&D Systems, Cat. No. 816-LR) (human) (UniProt Q13478); assay: SPR cross-competition, second experiment; antibody 2 injected on hIL-18Rα hFc held by captured antibody 1 (competitor): Mab2D11
[3] = biological target: recombinant human IL-18Rα Fc chimera (R&D Systems, Cat. No. 816-LR) (human) (UniProt Q13478); assay: SPR cross-competition, second experiment; antibody 2 injected on hIL-18Rα hFc held by captured antibody 1 (competitor): Mab840
[4] = biological target: recombinant human IL-18Rα Fc chimera (R&D Systems, Cat. No. 816-LR) (human) (UniProt Q13478); assay: SPR cross-competition, second experiment; antibody 2 injected on hIL-18Rα hFc held by captured antibody 1 (competitor): Mab1G12
[5] = biological target: T1, human IL-18Rα (IL-18R1) on human cells (KG-1 cells, PBMC, TH1-cultured T cells, whole blood) (human, UniProt Q13478 19-541); assay: cell-based or functional assay
T1 sequence: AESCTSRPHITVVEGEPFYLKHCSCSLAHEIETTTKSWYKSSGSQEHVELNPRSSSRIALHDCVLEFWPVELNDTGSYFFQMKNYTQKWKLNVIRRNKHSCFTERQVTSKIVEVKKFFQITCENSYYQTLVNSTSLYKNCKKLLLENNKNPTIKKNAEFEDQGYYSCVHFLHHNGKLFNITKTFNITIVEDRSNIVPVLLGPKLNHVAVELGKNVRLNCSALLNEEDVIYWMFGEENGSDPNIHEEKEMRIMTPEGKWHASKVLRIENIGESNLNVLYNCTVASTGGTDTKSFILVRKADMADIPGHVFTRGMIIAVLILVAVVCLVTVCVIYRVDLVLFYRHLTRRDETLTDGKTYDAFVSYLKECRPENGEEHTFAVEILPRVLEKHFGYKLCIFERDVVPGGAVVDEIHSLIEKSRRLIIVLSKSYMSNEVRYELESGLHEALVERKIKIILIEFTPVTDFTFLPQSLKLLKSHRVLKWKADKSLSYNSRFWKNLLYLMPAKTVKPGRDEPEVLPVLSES

human TH1-assay (IFN-γ after IL-18/IL-12 restimulation), IC90 [pM] [5] [pM] | also measured | Molecule
– | IL-18 induced IFNγ production by human KG-1 cells, IC50 [pM] [1]: 798 pM; percentage of expected binding response for antibody 2 [2]: 97%; percentage of expected binding response for antibody 2 [3]: 13%; percentage of expected binding response for antibody 2 [4]: 97% | anti-human IL-18Rα murine MAb Clone 70625 (R&D Systems #MAB840) (antibody)
148 | – | humanized Mab1G12-9.6 (antibody, V domains shown) VH: QVQLVQSGAEVKKPGASVKVSCKASDYTFTSNWMHWVRQAPGQGLEWMGTIDPSDSYTYYNQKFQGRVTMTRDTSTSTVYMELSSLRSEDTAVYYCTTSGDYDADRYFDVWGQGTTVTVSS VL: EIVLTQSPGTLSLSPGERATLSCRASKSVSTSGDSYMHWYQQKPGQAPRLLIYLASNLETGIPDRFSGSGSGTDFTLTISRLEPEDFAVYYCQQSRELPLSFGQGTKLEIK
283 | – | humanized Mab1G12-10.5 (antibody, V domains shown) VH: QVQLVQSGAEVKKPGASVKVSCKASDYTFTSNWMHWVRQAPGQGLEWMGTIDPSDSYTYYNQKFQGRATMTVDTSTSTVYMELSSLRSEDTAVYYCTTSGDYDADRYFDVWGQGTTVTVSS VL: DIQMTQSPSSLSASVGDRVTITCQASKSVSTSGDSYMHWYQQKPGKAPKLLIYLASNLETGVPSRFSGSGSGTDFTFTISSLQPEDIATYYCQQSRELPLSFGQGTKLEIK
93.5 | – | humanized Mab1G12-10.6 (antibody, V domains shown) VH: QVQLVQSGAEVKKPGASVKVSCKASDYTFTSNWMHWVRQAPGQGLEWMGTIDPSDSYTYYNQKFQGRATMTVDTSTSTVYMELSSLRSEDTAVYYCTTSGDYDADRYFDVWGQGTTVTVSS VL: EIVLTQSPGTLSLSPGERATLSCRASKSVSTSGDSYMHWYQQKPGQAPRLLIYLASNLETGIPDRFSGSGSGTDFTLTISRLEPEDFAVYYCQQSRELPLSFGQGTKLEIK
77 | – | humanized Mab1G12-11.6 (antibody, V domains shown) VH: QVQLVQSGAEVKKPGASVKVSCKASGYTFTSNWMHWVRQAPGQGLEWMGTIDPSDSYTYYAQKFQGRVTMTRDTSISTAYMELSRLRSDDTAVYYCTTSGDYDADRYFDVWGQGTTVTVSS VL: EIVLTQSPGTLSLSPGERATLSCRASKSVSTSGDSYMHWYQQKPGQAPRLLIYLASNLETGIPDRFSGSGSGTDFTLTISRLEPEDFAVYYCQQSRELPLSFGQGTKLEIK
399 | – | humanized Mab1G12-12.6 (antibody, V domains shown) VH: QVQLVQSGAEVKKPGASVKVSCKASGYTFTSNWMHWVRQAPGQGLEWMGTIDPSDSYTYYAQKLQGRVTMTTDTSTSTAYMELRSLRSDDTAVYYCTTSGDYDADRYFDVWGQGTTVTVSS VL: EIVLTQSPGTLSLSPGERATLSCRASKSVSTSGDSYMHWYQQKPGQAPRLLIYLASNLETGIPDRFSGSGSGTDFTLTISRLEPEDFAVYYCQQSRELPLSFGQGTKLEIK
